System: MCF7 breast cancer cells
Experiment: MCF7 cisplatin/endotrophin cell survival (MTS) neutralization assay
Type: cell-based, human
Description: FIGS. 3A-D. Generation and screening of anti-human endotrophin. (FIG. 3A) MCF7 breast cancer cells (20,000 cells) were plated into a 96-well plate. Cells were then treated with 10 μm cisplatin, 10 μm cisplatin/100 ng/mL endotrophin, and 10 μm cisplatin/100 ng/mL endotrophin/10 μg/mL ETPmAb4 for 24 hr. Cell survival was measured using a CellTiter One Solution Cell Proliferation Assay. Statistical significance of the curve fit parameters was tested using the extra sum of squares F test with P<0.05 considered significant. Goodness of curve fit is described using r2. Mean±SEM, n=3. (FIG. 3B) ETP transfected MCF7 cells (100,000 cells) were plated into a 24-well plate with 500 μL media. Then 4 μL of supernatant was loaded for Western blotting. It is estimated that approximately 1 ng of ETP was loaded, compared with the standard ETP (2 ng band). The concentration yields approximately 0.052 pg secreted ETP/hr/cell. […] ETP expression was determined by qRT-PCR and normalized to GAPDH. […] Migrated cells were counted after a 2 hr incubation. In all cases, data was represented as mean±SD, and statistical significance (*** p<0.0001) was calculated using an unpaired Student's t-test.
MTS assay screening endotrophin monoclonal antibodies. […] Cell survival was measured using a CellTiter One Solution Cell Proliferation Assay. […] The plate was then read at 490 nm using a Sunrise microplate reader (TECAN). […]

B1: ETP-mAb4: rabbit monoclonal anti-human endotrophin antibody selected for further study; VH SEQ ID NO: 125, VL SEQ ID NO: 126 (antibody, V domains shown)
VH: SSRVKESGGDLVKPGASLTLTCKASGFSFSSGYYICWVRQAPGKGLEWIACIYGGNNNPYYANWVNGRFTTSKTSSTTVTLQMTNLTGADTATYFCARKDINIGGAYELWGPGTLVTISS
VL: ELVMTQTPASVSEPVGGTVTINCQASQSISSSYLSWYQQKPGQPPKLLIYKASTLASGVPSRFKGSGSGTQFSLTISDLECADAATYYCQYSDWANSYGNAFGGGTEVVVK
neutralization of endotrophin-mediated MCF-7 cell survival (10 μm cisplatin, 100 ng/mL endotrophin, 10 μg/mL antibody, 24 hr): completely neutralize | restoration of cisplatinum susceptibility of endotrophin-exposed MCF-7 cells (cisplatin plus endotrophin): forced the cells to become susceptible to cisplatinum, in a dose-dependent manner

From US12331110B2, “Monoclonal antibodies against endotrophin and the use thereof” (THE BOARD OF REGENTS OF THE UNIVERSITY OF TEXAS SYSTEM, priority 2018, dated 2025)
